In US20190388508A1:

Assays:
TNFR2, P20333 [1] = biological target: T1, TNFR2, P20333; assay: method not stated; reference TNFα; settings: remark: other sources report otherwise
T1 chain: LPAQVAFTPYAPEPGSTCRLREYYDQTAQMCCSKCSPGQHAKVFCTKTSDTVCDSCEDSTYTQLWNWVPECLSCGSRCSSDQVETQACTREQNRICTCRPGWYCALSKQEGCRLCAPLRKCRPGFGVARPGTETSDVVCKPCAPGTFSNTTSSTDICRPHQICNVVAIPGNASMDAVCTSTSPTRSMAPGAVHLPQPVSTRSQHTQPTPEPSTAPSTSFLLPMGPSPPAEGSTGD

TNFR2, P20333 [2] = biological target: T1, TNFR2, P20333; assay: method not stated; settings: remark: other sources report otherwise

fold higher binding affinity than TNFα (TNFR2, P20333 [1]): 600 fold
Kd (TNFR2, P20333 [2]): 1.52 nM
B1: Progranulin (PGRN), P28799 18-593 (ligand)
chain: TRCPDGQFCPVACCLDPGGASYSCCRPLLDKWPTTLSRHLGGPCQVDAHCSAGHSCIFTVSGTSSCCPFPEAVACGDGHHCCPRGFHCSADGRSCFQRSGNNSVGAIQCPDSQFECPDFSTCCVMVDGSWGCCPMPQASCCEDRVHCCPHGAFCDLVHTRCITPTGTHPLAKKLPAQRTNRAVALSSSVMCPDARSRCPDGSTCCELPSGKYGCCPMPNATCCSDHLHCCPQDTVCDLIQSKCLSKENATTDLLTKLPAHTVGDVKCDMEVSCPDGYTCCRLQSGAWGCCPFTQAVCCEDHIHCCPAGFTCDTQKGTCEQGPHQVPWMEKAPAHLSLPDPQALKRDVPCDNVSSCPSSDTCCQLTSGEWGCCPIPEAVCCSDHQHCCPQGYTCVAEGQCQRGSEIVAGLEKMPARRASLSHPRDIGCDQHTSCPVGQTCCPSLGGSWACCQLPHAVCCEDRQHCCPAGYTCNVKARSCEKEVVSAQPATFLARSPHVGVKDVECGEGHFCHDNQTCCRDNRQGWACCPYRQGVCCADRRHCCPAGFRCAARGTKCLRREAPRWDAPLRDPALRQLL
